Measured values: publication PMC6297355, “Myopathy associated BAG3 mutations lead to protein aggregation by stalling Hsp70 networks” (Nature Communications, 2018)

Biological target: the molecule itself
Assay: SEC-MALS; 30 µM BAG3 solutions separated on Shodex 804, in-line DAWN HELEOS and Optilab rEX detectors

| Protein | binding result |
| --- | --- |
| BAG3^P209L (recombinant) (natural protein, BAG3, human, disease mutation P209L in the second IPV motif; Forms soluble higher order oligomers by SEC-MALS; source: E. coli BL21(DE3), purified (Ni-NTA, TEV cleavage, MonoQ)) not shown | binds |
| BAG3^P209I (recombinant) (natural protein, BAG3, human, P209I; source: E. coli BL21(DE3), purified (Ni-NTA, TEV cleavage, MonoQ)) not shown | binds |
| BAG3^P209W (recombinant) (natural protein, BAG3, human, P209W; source: E. coli BL21(DE3), purified (Ni-NTA, TEV cleavage, MonoQ)) not shown | binds |
